Test results from patent US20080260858A1, “Universal Procoagulant” (The Board of Trustees of the University of Illnois, priority 2005, published 2008).

Experiments:
[1] = target: T1, VIIa (Homo sapiens, UniProt P08709); test: Kd for VIIa binding to TF (X activation rate as readout); conditions: purified proteins; membTF in PCPS liposomes; sTF-5AA-(His)6 plus NiPCPS liposomes; read-out: VIIa binding Kd
T1 construct: VIIa or factor VIIa means coagulation factor VIIa (active enzyme); purchased American Diagnostica
T1 sequence (P08709 61-212): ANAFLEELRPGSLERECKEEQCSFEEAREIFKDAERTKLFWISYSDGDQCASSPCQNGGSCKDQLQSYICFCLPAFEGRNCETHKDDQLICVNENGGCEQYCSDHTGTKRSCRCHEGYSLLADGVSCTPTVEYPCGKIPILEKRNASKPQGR
T1 sequence (P08709 213-466): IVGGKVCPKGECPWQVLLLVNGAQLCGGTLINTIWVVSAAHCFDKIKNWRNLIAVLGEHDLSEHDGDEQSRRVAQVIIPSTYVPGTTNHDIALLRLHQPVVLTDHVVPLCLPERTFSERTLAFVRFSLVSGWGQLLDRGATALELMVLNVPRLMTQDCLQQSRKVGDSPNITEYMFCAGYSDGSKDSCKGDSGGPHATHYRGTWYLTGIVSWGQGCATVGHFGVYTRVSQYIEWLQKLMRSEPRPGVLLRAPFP
Experimental: When VIIa binds to TF, its rate of X activation increases dramatically, so this can be used as a convenient readout for TF:VIIa complex formation. […] Therefore, when the isolated TF ectodomain was attached to the membrane surface via interaction with metal-chelating lipids, its VIIa binding ability was indistinguishable from membTF that spanned the lipid bilayer.
Measurement of the Kd for VIIa binding to TF—The binding affinity of VIIa for various forms of TF was measured using the TF-dependent increase in the rate of X activation as the readout for TF:VIIa complex formation. Activation of X by the TF:VIIa complex was measured by adapting the continuous chromogenic assay of Fiore et al.. Reaction mixtures containing Vila and either rTF/PCPS or sTF+SUVs were prepared in HBSAC. Reactions were initiated by adding a mixture of X and the chromogenic substrate, S-2222, in a flat bottom, 96-well plate. Change in A405 was monitored at ambient temperature in a VERSAmax microplate reader (Molecular Devices), sampling every 15 sec for 20 min. Initial rates of X activation were determined by fitting a second-order polynomial to the A405 data as described. The quadratic ligand binding equation was fit to the rate data as described to derive apparent Kd values for the binding of VIIa to TF. For experiments using relipidated rTF, typical reaction mixtures containing 0.25 μM VIIa and 20 nM X in HBSAC were incubated with increasing concentrations of rTF/PCPS.

[2] = target: T2, X activation by VIIa (Homo sapiens, UniProt P08709); test: Factor X activation using liposomes; assay type: biochemical; conditions: 500 pM VIIa, 4 pM TF, 50 μM total lipid; liposomes
T2 construct: VIIa or factor VIIa means coagulation factor VIIa (active enzyme); purchased American Diagnostica
Experimental: A stringent test of TF:VIIa function is its ability to support the activation of its natural protein substrate, X. This requires that TF be incorporated into a suitable phospholipid membrane (i.e., one containing negatively charged phospholipids). […] The ability of various forms of TF to support the activation of X was compared under equivalent concentrations of enzyme (500 pM VIIa), cofactor (4 pM TF) and liposomes (50 μM total lipid).
Factor X activation using liposomes. […] At varying times, 20 μl aliquots were removed into a 96-well plate containing 100 μl Stop Buffer 1 (40 mM Mes-NaOH pH 5.8, 12 mM EDTA, 50 mM NaCl, 0.25% Triton X-100, 0.1% NaN3, 0.012% Antifoam C) at 4° C. After warming the stopped reactions to room temperature, Xa was detected by adding 60 μl of 1.5 mM Spectrozyme Xa in HBSAC plus 0.6 M Tricine-NaOH, pH 8.4 and quantifying change in A405. Amounts of Xa generated were determined by comparison to a standard curve with purified Xa.

[3] = target: T3, VII (Homo sapiens, UniProt P08709); test: Factor VII autoactivation; assay type: biochemical; conditions: 15 nM VII and TF; 37° C.; liposomes
T3 construct: Purified plasma-derived VII, X and factor Xa (Xa) were from Enzyme Research Laboratories; purchased Enzyme Research Laboratories; host or cells: plasma
T3 sequence (P08709 61-466, one chain of several): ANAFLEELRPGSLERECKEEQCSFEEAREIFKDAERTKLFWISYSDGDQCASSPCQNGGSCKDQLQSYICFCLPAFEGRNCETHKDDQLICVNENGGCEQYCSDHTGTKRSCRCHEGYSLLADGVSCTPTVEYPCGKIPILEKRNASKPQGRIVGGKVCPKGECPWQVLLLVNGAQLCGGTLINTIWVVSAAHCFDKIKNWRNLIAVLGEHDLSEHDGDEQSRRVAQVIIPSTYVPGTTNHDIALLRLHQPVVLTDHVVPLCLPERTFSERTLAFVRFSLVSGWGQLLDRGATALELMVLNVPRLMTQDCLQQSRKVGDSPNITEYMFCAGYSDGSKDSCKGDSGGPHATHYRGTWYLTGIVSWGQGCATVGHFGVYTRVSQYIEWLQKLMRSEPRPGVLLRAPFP
Experimental: An additional function of TF is to promote the autoactivation of VII in a reaction that is dependent on TF surface density.
Factor VII autoactivation. Rates of VII autoactivation were measured essentially as described. Equimolar concentrations of VII and TF (15 nM each) were incubated in HBSAC at 37° C. […] A 20 μl aliquot of 5 mM Chromozym t-PA substrate was added and the change in A405 was monitored at ambient temperature. Two-dimensional second-order rate constants (k2D) were determined as described.

B1: membTF: recombinant membrane-bound tissue factor (protein, UniProt P13726 1-295, looked up)
chain: METPAWPRVPRPETAVARTLLLGWVFAQVAGASGTTNTVAAYNLTWKSTNFKTILEWEPKPVNQVYTVQISTKSGDWKSKCFYTTDTECDLTDEIVKDVKQTYLARVFSYPAGNVESTGSAGEPLYENSPEFTPYLETNLGQPTIQSFEQVGTKVNVTVEDERTLVRRNNTFLSLRDVFGKDLIYTLYYWKSSSSGKKTAKTNTNEFLIDVDKGENYCFSVQAVIPSRTVNRKSTDSPVECMGQEKGEFREIFYIIGAVVFVVIILVIILAISLHKCRKAGVGQSWKENSPLNVS
modifications: full-length
Kd [1]: 0.01 nM
Km [2]: 0.059 ± 0.00088 µM
X activation kcat [2]: 3.5 ± 0.38 s⁻¹
VII autoactivation k2D [3]: 3.4 (±0.15) × 10^7 m^2 mol^−1 s^−1
